In patent US20200181677A1 (REGENTS OF THE UNIVERSITY OF MINNESOTA, published 2020):
Ends that are not written are not given here.

B1: peptide #11 (Optimized PKCβ Sub.), alanine-substituted, in PKCα FRET sensor (peptide)
peptide: FKLKRKGAFKKFA
modifications: also: fused to PKCα catalytic domain via 10 nm ER/K linker in FRET sensor
notes: Ala form in the FRET sensor, tethered to the PKCα catalytic domain by the 10 nm ER/K FRET linker; also called p11

Target: T1, human PKCα catalytic domain (human, UniProt P17252 336-672, limits assumed)
T1 construct: domain: catalytic domain; For activity assays the catalytic domain was isolated by TEV cleavage; also called catalytic domain of PKCα; PKC catalytic domain
Assay: time-resolved FRET (TCSPC) of eGFP/mCherry peptide-catalytic domain sensor

Binder | Mol Fraction Bound [mol fraction] | Mol Fraction Unbound [mol fraction]
B1 | 0.15 | 0.85
ASQKRPAQRH (peptide, not shown: large carriers; small tags and cut ends, also called p6) [peptide #6 (Myelin Basic Protein), alanine-substituted, in PKCα FRET sensor] | 0.08 | 0.92
RRRRAIIFI (peptide, not shown: large carriers; small tags and cut ends, also called p10) [peptide #10 (Optimized PKA Sub.), alanine-substituted, in PKCα FRET sensor] | 0.16 | 0.84
